B1: Mutation 1-23 (antibody, V domains shown)
VH: EVQLQQSGTELVRPGALVKLSCKASGFNIKDYYLHWVKQRPRQGLEWIGWIDPENGKTIYDPKFQDKASITSDTSTNTAYLQLRSLTSEDTAVYYCVTAYFRFVYWGQGTLVTVSA
VL: QIVLTQSPAIMSAFPGERVTMTCSASSSVRYMYWHQQKPGSSPRLLIYDTSNVASGVPVRFSGSGSGTSYSLTISRDEAMDAATYYCQQWSSTPRTFGGGTKLEIKR
B2: Mutation 1-30 (antibody, V domains shown)
VH: EVQLQQSGTELVRPGALVKLSCKASGFNIKDYYVHWVKQRPRQGLEWIGWIDPENGKTIYDPKFQDKASITSDTSTNTAYLQLRSLTSEDTAVYYCVTAYFRFVYWGQGTLVTVSA
VL: QIVLTQSPAIMSAFPGERVTMTCSASSSVRYMYWHQQKPGSSPRLLIYDTSNIASGVPVRFSGSGSGTSYSLTISRDEAMDAATYYCQQWSSYPRTFGGGTKLEIKR
B3: Mutation 1-26 (antibody, V domains shown)
VH: EVQLQQSGTELVRPGALVKLSCKASGFNIKDYYLHWVKQRPRQGLEWIGWIDPENGKTLYDPKFQDKASITSDTSTNTAYLQLRSLTSEDTAVYYCVTAYYRFVYWGQGTLVTVSA
VL: QIVLTQSPAIMSAFPGERVTMTCSASSSVRYMYWHQQKPGSSPRLLIYDTSNVASGVPVRFSGSGSGTSYSLTISRDEAMDAATYYCQQWSSYPRTFGGGTKLEIKR
B4: Mutation 1-24 (antibody, V domains shown)
VH: EVQLQQSGTELVRPGALVKLSCKASGFNIKDYYVHWVKQRPRQGLEWIGWIDPENGKTLYDPKFQDKASITSDTSTNTAYLQLRSLTSEDTAVYYCVTAYVRFVYWGQGTLVTVSA
VL: QIVLTQSPAIMSAFPGERVTMTCSASTSVRYMYWHQQKPGSSPRLLIYDTSNIASGVPVRFSGSGSGTSYSLTISRDEAMDAATYYCQQWSSYPRTFGGGTKLEIKR
B5: Mutation 1-28 (antibody, V domains shown)
VH: EVQLQQSGTELVRPGALVKLSCKASGFNIKDYYIHWVKQRPRQGLEWIGWIDPENGKTLYDPKFQDKASITSDTSTNTAYLQLRSLTSEDTAVYYCVSAYFRFVYWGQGTLVTVSA
VL: QIVLTQSPAIMSAFPGERVTMTCSASTSVRYMYWHQQKPGSSPRLLIYDTSNLASGVPVRFSGSGSGTSYSLTISRDEAMDAATYYCQQWSSYPRTFGGGTKLEIKR
B6: Mutation 1-27 (antibody, V domains shown)
VH: EVQLQQSGTELVRPGALVKLSCKASGFNIKDYYVHWVKQRPRQGLEWIGWIDPENGKTIYDPKFQDKASITSDTSTNTAYLQLRSLTSEDTAVYYCVSAYVRFVYWGQGTLVTVSA
VL: QIVLTQSPAIMSAFPGERVTMTCSASSSVRYMYWHQQKPGSSPRLLIYDTSNLASGVPVRFSGSGSGTSYSLTISRDEAMDAATYYCQQWSSTPRTFGGGTKLEIKR
B7: Mutation 1-29 (antibody, V domains shown)
VH: EVQLQQSGTELVRPGALVKLSCKASGFNIKDYYLHWVKQRPRQGLEWIGWIDPENGKTIYDPKFQDKASITSDTSTNTAYLQLRSLTSEDTAVYYCVSAYYRFVYWGQGTLVTVSA
VL: QIVLTQSPAIMSAFPGERVTMTCSASTSVRYMYWHQQKPGSSPRLLIYDTSNVASGVPVRFSGSGSGTSYSLTISRDEAMDAATYYCQQWSSYPRTFGGGTKLEIKR
B8: Mutation 1-25 (antibody, V domains shown)
VH: EVQLQQSGTELVRPGALVKLSCKASGFNIKDYYIHWVKQRPRQGLEWIGWIDPENGKTIYDPKFQDKASITSDTSTNTAYLQLRSLTSEDTAVYYCVTAYFRFVYWGQGTLVTVSA
VL: QIVLTQSPAIMSAFPGERVTMTCSASSSVRYMYWHQQKPGSSPRLLIYDTSNLASGVPVRFSGSGSGTSYSLTISRDEAMDAATYYCQQWSSTPRTFGGGTKLEIKR

The binders below were run against DN-III quality control recombinant protein (produced by Fapon Biotech InC.) (dengue virus) (assay: BLI, AMC sensor, antibody captured).

How did the Kd turn out when B1 was run?
The Kd was 0.46 nM.

And the koff?
The koff was 3.86e-05 s⁻¹.

What about the kon of the same binder?
Its kon is 44600 M⁻¹ s⁻¹.

B2 was tested. Which Kd did it give?
The Kd was 0.95 nM.

And the koff?
Its koff is 3.56e-05 s⁻¹.

And the kon?
The kon was 37600 M⁻¹ s⁻¹.

Which results are given for B3?
Kd: 0.111 nM; koff: 3.47e-05 s⁻¹; kon: 312000 M⁻¹ s⁻¹

Which results are given for B4?
Kd: 0.53 nM; koff: 1.74e-05 s⁻¹; kon: 37700 M⁻¹ s⁻¹

Which Kd does the source give for B5 here?
The Kd was 0.78 nM.

And the koff?
The koff was 2.89e-05 s⁻¹.

What about the kon of the same binder?
Its kon is 37000 M⁻¹ s⁻¹.

For B6, which Kd is on record?
The Kd was 0.121 nM.

What about the koff of the same binder?
Its koff is 3.66e-05 s⁻¹.

And the kon?
Its kon is 303000 M⁻¹ s⁻¹.

Which Kd does the source give for B7 here?
Its Kd is 0.9 nM.

What about the koff of the same binder?
The koff was 3.23e-05 s⁻¹.

And the kon?
The kon was 35700 M⁻¹ s⁻¹.

Which results are given for B8?
Kd: 1.09 nM; koff: 1.78e-05 s⁻¹; kon: 33900 M⁻¹ s⁻¹

— patent US20240158475A1
